Source: PMC5467005, “Functional Characterization of Tea (Camellia sinensis) MYB4a Transcription Factor Using an Integrative Approach”

B1: AC-III probe (dsDNA)
DNA 1: CCAGTCCACCTAACTCTACCTAACTCTACCTAACGCTGTTC
DNA 2: GAACAGCGTTAGGTAGAGTTAGGTAGAGTTAGGTGGACTGG
B2: AC-IV probe (dsDNA)
DNA 1: CCAGTCCACCAAACTCTACCAAACTCTACCAAACGCTGTTC
DNA 2: GAACAGCGTTTGGTAGAGTTTGGTAGAGTTTGGTGGACTGG
B3: AC-I probe (dsDNA)
DNA 1: CGGTACCAGTCCACCTACCGCCACCTACCGCCACCTACCGCTGTTCTCGA
DNA 2: TCGAGAACAGCGGTAGGTGGCGGTAGGTGGCGGTAGGTGGACTGGTACCG
B4: AC-II probe (dsDNA)
DNA 1: CGGTACCAGTCCACCAACCGCCACCAACCGCCACCAACCGCTGTTCTCGA
DNA 2: TCGAGAACAGCGGTTGGTGGCGGTTGGTGGCGGTTGGTGGACTGGTACCG

These binders were tested against CsMYB4a (Camellia sinensis, UniProt A0A1V0G0T8 1-244) (assay: EMSA; Not given; EMSA according to Shen et al. 2012; salmon sperm DNA as non-specific competitor). Details: protein: recombinant; tags: N-terminal His-tag; blunt.
Chain of CsMYB4a (A0A1V0G0T8 entry or part of it): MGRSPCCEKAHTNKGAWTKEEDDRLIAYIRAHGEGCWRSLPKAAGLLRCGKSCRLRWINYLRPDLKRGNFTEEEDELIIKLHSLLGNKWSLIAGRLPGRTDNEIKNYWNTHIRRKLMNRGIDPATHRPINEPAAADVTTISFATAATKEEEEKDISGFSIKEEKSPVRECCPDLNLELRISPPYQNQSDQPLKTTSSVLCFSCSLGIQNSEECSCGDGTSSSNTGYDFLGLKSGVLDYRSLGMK

Binding result, binds:
B1, B2, B3, B4
